Consider 9 substances from patent US20120107324A1.

For assay [1], the target named is Macaque β1 chain (Macaque). The assay is described as follows: FACS on macaque T-cells; Goat anti Mouse IgGFc Cy5 alone 2.
The target in assay [2] is β1 chain (integrin β1) (human) (UniProt P05556). The assay is described as follows: FACS on HT29 cells; Gt anti Mouse alone 2.52.
The target is the same in assay [3]. The assay is described as follows: FACS on HT29 cells, isotype control; human secondary 2.8.
In assay [4] the target is human α5β1 integrin (human) (UniProt P08648). The assay is described as follows: FACS on human α5β1-transfected 300.19 cells, 2.0 ug/mL.
Assay [5] shares this target. The assay is described as follows: FACS on human α5β1-transfected against untransfected 300.19 cells, 2.0 ug/mL.
The target in assay [6] is Macaque α5β1 (Macaque). The assay is described as follows: FACS on macaque T-cells, isotype control; Goat anti Human IgG Fc Cy5 alone 3.
In a further assay the target is αv integrin chain (UniProt P06756). The assay is described as follows: FACS on HT29 cells, positive control; Gt anti Mouse alone 2.52.
The target in assay [7] is Macaque αv chain (Macaque). The assay is described as follows: FACS on macaque T-cells; Goat anti Mouse IgGFc Cy5 alone 2.
A further assay concerns the target αvβ6 integrin (UniProt P06756). The assay is described as follows: FACS on HT29 cells, positive control; Gt anti Mouse alone 2.52.
The target of assay [8] is β1 chain (integrin β1) (human) (UniProt P05556). The assay is described as follows: FACS on HT29 cells, isotype control; Gt anti Mouse alone 2.52.
For assay [9], the target named is Macaque α5β1 (Macaque). The assay is described as follows: FACS on macaque T-cells, isotype control; Goat anti Mouse IgGFc Cy5 alone 2.
For assay [10], the target named is human α5β1 integrin (human) (UniProt P08648). The assay is described as follows: FACS on human α5β1-transfected 300.19 cells, 0.02 ug/mL.
Assay [11] shares this target. The assay is described as follows: FACS on human α5β1-transfected against untransfected 300.19 cells, 0.2 ug/mL.
The target in assay [12] is β1 chain (integrin β1) (human) (UniProt P05556). The assay is described as follows: FACS on HT29 cells (α5 null, β1 present); Gt anti Mouse alone 2.52.
Assay [13] concerns the target human α5β1 integrin (human) (UniProt P08648). The assay is described as follows: FACS on human α5β1-transfected against untransfected 300.19 cells, 0.02 ug/mL.
Assay [14] has the same target. The assay is described as follows: FACS on human α5β1-transfected 300.19 cells, 0.2 ug/mL.

Chain of human α5β1 integrin (human) (P08648 42-1049, chain 1 of 2): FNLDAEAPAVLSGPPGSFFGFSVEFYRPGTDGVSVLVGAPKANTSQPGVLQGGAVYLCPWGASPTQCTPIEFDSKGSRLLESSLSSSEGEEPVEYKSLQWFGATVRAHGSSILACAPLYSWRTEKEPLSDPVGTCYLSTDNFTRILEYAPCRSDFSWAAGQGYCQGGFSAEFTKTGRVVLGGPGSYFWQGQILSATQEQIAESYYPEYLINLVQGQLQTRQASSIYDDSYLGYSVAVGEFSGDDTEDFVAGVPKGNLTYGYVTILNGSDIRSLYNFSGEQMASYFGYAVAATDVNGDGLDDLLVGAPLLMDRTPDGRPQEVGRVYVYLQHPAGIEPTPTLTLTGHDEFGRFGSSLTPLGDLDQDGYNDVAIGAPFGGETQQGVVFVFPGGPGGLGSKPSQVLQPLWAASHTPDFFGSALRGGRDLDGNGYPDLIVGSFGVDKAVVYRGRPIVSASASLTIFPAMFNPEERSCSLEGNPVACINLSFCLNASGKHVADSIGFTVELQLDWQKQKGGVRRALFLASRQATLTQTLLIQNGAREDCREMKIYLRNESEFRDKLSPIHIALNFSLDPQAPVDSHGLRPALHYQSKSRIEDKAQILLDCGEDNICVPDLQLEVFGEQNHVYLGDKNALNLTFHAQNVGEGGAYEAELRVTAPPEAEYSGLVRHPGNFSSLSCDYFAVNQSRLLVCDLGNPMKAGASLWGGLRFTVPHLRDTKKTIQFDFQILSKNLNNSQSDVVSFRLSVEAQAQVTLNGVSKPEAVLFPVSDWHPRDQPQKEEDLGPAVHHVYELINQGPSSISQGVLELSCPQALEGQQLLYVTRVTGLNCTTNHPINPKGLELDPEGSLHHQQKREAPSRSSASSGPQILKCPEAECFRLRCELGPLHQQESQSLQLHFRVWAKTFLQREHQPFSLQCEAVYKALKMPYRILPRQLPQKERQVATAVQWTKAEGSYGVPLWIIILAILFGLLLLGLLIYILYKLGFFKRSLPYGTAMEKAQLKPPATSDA
Chain of human α5β1 integrin (human) (P05556 21-798, chain 2 of 2, further chain): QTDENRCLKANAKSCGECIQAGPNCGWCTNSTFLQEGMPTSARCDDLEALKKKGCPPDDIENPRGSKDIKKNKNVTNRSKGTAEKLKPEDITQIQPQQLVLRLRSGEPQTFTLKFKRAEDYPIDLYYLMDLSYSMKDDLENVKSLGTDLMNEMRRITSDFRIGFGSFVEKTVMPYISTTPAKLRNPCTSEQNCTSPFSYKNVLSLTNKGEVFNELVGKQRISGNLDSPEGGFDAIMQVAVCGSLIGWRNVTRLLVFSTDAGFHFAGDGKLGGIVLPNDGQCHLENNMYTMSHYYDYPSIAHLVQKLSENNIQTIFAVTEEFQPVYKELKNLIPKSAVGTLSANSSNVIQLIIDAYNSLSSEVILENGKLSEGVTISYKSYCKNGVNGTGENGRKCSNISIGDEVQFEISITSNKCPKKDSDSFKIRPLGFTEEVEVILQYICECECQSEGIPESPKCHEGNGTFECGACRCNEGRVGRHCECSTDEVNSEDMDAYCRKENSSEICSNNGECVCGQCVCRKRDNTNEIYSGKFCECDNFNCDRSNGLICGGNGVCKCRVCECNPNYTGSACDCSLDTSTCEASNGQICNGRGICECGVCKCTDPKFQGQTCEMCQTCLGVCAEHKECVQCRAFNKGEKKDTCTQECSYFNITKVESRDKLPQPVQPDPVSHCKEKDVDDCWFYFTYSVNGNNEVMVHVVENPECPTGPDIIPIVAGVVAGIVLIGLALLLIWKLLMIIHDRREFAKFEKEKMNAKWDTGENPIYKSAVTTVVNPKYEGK
Chain of β1 chain (integrin β1) (human) (P05556 21-798): as the sequence (P05556 21-798, chain 2 of 2, further chain) above
Chain of αv integrin chain (P06756 31-1048 limits assumed): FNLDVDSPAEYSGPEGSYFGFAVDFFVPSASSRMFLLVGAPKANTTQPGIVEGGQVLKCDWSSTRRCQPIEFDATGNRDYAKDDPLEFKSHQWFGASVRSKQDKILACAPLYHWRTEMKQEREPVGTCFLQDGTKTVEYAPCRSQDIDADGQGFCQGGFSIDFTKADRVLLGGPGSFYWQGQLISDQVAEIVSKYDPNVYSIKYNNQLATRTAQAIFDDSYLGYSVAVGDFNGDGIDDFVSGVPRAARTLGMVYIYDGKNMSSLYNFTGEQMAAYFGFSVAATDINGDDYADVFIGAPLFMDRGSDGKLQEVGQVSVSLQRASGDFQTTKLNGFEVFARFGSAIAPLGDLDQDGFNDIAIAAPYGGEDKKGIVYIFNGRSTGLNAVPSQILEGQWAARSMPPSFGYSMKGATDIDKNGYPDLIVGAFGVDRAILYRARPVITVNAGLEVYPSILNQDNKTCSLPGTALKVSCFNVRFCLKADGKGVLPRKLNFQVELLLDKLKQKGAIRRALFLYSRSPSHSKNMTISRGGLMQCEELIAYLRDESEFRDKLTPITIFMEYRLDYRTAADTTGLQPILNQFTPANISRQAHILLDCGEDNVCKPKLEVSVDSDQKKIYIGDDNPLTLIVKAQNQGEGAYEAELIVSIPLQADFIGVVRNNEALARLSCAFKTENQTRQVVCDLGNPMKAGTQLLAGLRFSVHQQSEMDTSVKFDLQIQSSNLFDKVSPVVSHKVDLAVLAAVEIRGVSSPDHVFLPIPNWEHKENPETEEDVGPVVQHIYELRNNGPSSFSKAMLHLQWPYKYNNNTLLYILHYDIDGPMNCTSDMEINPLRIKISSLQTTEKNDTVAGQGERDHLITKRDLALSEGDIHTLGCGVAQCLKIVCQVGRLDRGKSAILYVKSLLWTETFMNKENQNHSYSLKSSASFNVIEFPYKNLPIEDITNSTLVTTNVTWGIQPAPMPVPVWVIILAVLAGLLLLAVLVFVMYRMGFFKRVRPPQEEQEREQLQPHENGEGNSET
Chain of αvβ6 integrin (P06756 31-1048, chain 1 of 2): as the sequence (P06756 31-1048 limits assumed) above
Chain of αvβ6 integrin (P18564 22-788, chain 2 of 2, further chain): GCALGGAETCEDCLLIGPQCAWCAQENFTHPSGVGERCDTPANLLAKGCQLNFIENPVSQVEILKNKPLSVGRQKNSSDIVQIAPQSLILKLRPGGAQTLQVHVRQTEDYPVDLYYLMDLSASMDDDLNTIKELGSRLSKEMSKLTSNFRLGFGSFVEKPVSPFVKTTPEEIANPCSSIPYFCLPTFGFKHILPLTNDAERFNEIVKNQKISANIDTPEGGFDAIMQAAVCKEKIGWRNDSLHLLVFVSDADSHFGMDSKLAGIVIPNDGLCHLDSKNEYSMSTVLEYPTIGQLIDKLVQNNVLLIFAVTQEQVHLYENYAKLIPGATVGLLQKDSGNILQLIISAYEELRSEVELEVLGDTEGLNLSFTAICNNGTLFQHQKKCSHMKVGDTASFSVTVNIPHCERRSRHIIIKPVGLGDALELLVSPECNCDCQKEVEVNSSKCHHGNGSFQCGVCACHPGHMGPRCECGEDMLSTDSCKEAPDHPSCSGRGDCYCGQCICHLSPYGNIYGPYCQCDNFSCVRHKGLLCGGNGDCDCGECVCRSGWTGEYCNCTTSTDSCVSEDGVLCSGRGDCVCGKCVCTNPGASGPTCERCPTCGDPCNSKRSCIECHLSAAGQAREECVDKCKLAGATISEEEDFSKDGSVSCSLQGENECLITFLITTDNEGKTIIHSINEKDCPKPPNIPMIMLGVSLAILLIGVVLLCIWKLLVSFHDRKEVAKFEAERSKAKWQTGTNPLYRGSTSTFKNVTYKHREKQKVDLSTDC

On to 4B4 (antibody), for which the Geo Mean on Macaque T-cells IgG detection in assay [1] turned out to be 141. Also, the Binding Geomean in [2] came to 362.

Human IgG2 (antibody) registered a Binding Geomean in [3] of 2.84. In assay [4], this substance had a X Geo Mean of 12. The Ratio (α5β1 expressing B300.19 cells against B300.19 cells) in assay [5] is 0.8.

In the assay with Macaque α5β1 (Macaque) [6], Human IgG2/4 (antibody) returned a Geo Mean on Macaque T-cells IgG detection of 3.

Take Human IgG4 (antibody): the Binding Geomean in assay [3] came out at 3.2.

Turning to L230 (antibody), the Binding Geomean in the assay with αv integrin chain stood at 294. The substance further gave a Geo Mean on Macaque T-cells IgG detection in assay [7] of 3.

MAB2077Z (antibody) yielded a Binding Geomean with αvβ6 integrin of 39.2.

With Mouse IgG1 (antibody), in [4], the X Geo Mean was found to be 14.9. For the same substance, the Ratio (α5β1 expressing B300.19 cells against B300.19 cells) in [5] was 0.9. Besides, in assay [8], the Binding Geomean is 2.55. For the same substance, the Geo Mean on Macaque T-cells IgG detection in the assay with Macaque α5β1 (Macaque) [9] amounted to 2.

As to Mouse IgG2a (antibody), in assay [8], the Binding Geomean is 10.2.

In the case of mAb 1969 (antibody), the results for the X Geo Mean in [10], in assay [4] and in assay [14] were 45.1, 194 and 152, respectively. For the same substance, the Ratio (α5β1 expressing B300.19 cells against B300.19 cells) was determined as 6.9 in [11], 9.5 in [5] and 2.5 in assay [13]. In assay [12], this substance yielded a Binding Geomean of 2.69.
